Laboratory results taken from article PMC4655838 (2015).
Square brackets hold non-standard residues; d marks the D form. Ends that are not written are not given here. pT = C[C@@H](OP(=O)(O)O)[C@H](N)C(=O)O; pS = N[C@@H](COP(=O)(O)O)C(=O)O

T1: APLF FHA domain (residues 1-106) (UniProt Q8IW19 1-106)
T1 chain: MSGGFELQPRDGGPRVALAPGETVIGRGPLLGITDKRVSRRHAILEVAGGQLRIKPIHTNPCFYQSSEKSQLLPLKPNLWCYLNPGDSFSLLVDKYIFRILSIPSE

B1: XRCC1 515-529 peptide phosphorylated on Ser518, Thr519 and Thr523 (peptide)
peptide: YAG[pS][pT]DEN[pT]DSEEHQ-NH2
modifications: N-terminus assumed
SMILES: C[C@H](NC(=O)[C@@H](N)Cc1ccc(O)cc1)C(=O)NCC(=O)N[C@@H](COP(=O)(O)O)C(=O)N[C@H](C(=O)N[C@@H](CC(=O)O)C(=O)N[C@@H](CCC(=O)O)C(=O)N[C@@H](CC(N)=O)C(=O)N[C@H](C(=O)N[C@@H](CC(=O)O)C(=O)N[C@@H](CO)C(=O)N[C@@H](CCC(=O)O)C(=O)N[C@@H](CCC(=O)O)C(=O)N[C@@H](Cc1c[nH]cn1)C(=O)N[C@@H](CCC(N)=O)C(N)=O)[C@@H](C)OP(=O)(O)O)[C@@H](C)OP(=O)(O)O
B2: XRCC1 515-529 peptide phosphorylated on Ser518, Thr519, Thr523 and Ser525 (peptide)
peptide: YAG[pS][pT]DEN[pT]D[pS]EEHQ-NH2
modifications: N-terminus assumed
SMILES: C[C@H](NC(=O)[C@@H](N)Cc1ccc(O)cc1)C(=O)NCC(=O)N[C@@H](COP(=O)(O)O)C(=O)N[C@H](C(=O)N[C@@H](CC(=O)O)C(=O)N[C@@H](CCC(=O)O)C(=O)N[C@@H](CC(N)=O)C(=O)N[C@H](C(=O)N[C@@H](CC(=O)O)C(=O)N[C@@H](COP(=O)(O)O)C(=O)N[C@@H](CCC(=O)O)C(=O)N[C@@H](CCC(=O)O)C(=O)N[C@@H](Cc1c[nH]cn1)C(=O)N[C@@H](CCC(N)=O)C(N)=O)[C@@H](C)OP(=O)(O)O)[C@@H](C)OP(=O)(O)O
B3: XRCC1 515-529 peptide phosphorylated solely on Thr523 (peptide)
peptide: YAGSTDENTDSEEHQ
HELM: PEPTIDE1{Y.A.G.S.T.D.E.N.[C[C@@H](OP(=O)(O)O)[C@H](N[*:1])C(=O)[*:2]].D.S.E.E.H.Q.[am]}$$$$V2.0; N-terminus assumed
SMILES: C[C@H](NC(=O)[C@@H](N)Cc1ccc(O)cc1)C(=O)NCC(=O)N[C@@H](CO)C(=O)N[C@H](C(=O)N[C@@H](CC(=O)O)C(=O)N[C@@H](CCC(=O)O)C(=O)N[C@@H](CC(N)=O)C(=O)N[C@H](C(=O)N[C@@H](CC(=O)O)C(=O)N[C@@H](CO)C(=O)N[C@@H](CCC(=O)O)C(=O)N[C@@H](CCC(=O)O)C(=O)N[C@@H](Cc1c[nH]cn1)C(=O)N[C@@H](CCC(N)=O)C(N)=O)[C@@H](C)OP(=O)(O)O)[C@@H](C)O
B4: XRCC4 229-237 peptide phosphorylated on Ser232, Thr233 and Ser237 (peptide)
peptide: YDE[pS][pT]DEE[pS]-NH2
modifications: N-terminus assumed
SMILES: C[C@@H](OP(=O)(O)O)[C@H](NC(=O)[C@H](COP(=O)(O)O)NC(=O)[C@H](CCC(=O)O)NC(=O)[C@H](CC(=O)O)NC(=O)[C@@H](N)Cc1ccc(O)cc1)C(=O)N[C@@H](CC(=O)O)C(=O)N[C@@H](CCC(=O)O)C(=O)N[C@@H](CCC(=O)O)C(=O)N[C@@H](COP(=O)(O)O)C(N)=O
B5: XRCC4 229-237 peptide phosphorylated on Thr233 (peptide)
peptide: YDESTDEES
HELM: PEPTIDE1{Y.D.E.S.[C[C@@H](OP(=O)(O)O)[C@H](N[*:1])C(=O)[*:2]].D.E.E.S.[am]}$$$$V2.0; N-terminus assumed
SMILES: C[C@@H](OP(=O)(O)O)[C@H](NC(=O)[C@H](CO)NC(=O)[C@H](CCC(=O)O)NC(=O)[C@H](CC(=O)O)NC(=O)[C@@H](N)Cc1ccc(O)cc1)C(=O)N[C@@H](CC(=O)O)C(=O)N[C@@H](CCC(=O)O)C(=O)N[C@@H](CCC(=O)O)C(=O)N[C@@H](CO)C(N)=O
B6: XRCC1 515-529 peptide phosphorylated on Ser518 and Thr519 (peptide)
peptide: YAGSTDENTDSEEHQ
HELM: PEPTIDE1{Y.A.G.[O=C([C@H](COP(=O)(O)O)N[*:1])[*:2]].[C[C@@H](OP(=O)(O)O)[C@H](N[*:1])C(=O)[*:2]].D.E.N.T.D.S.E.E.H.Q.[am]}$$$$V2.0; N-terminus assumed
SMILES: C[C@H](NC(=O)[C@@H](N)Cc1ccc(O)cc1)C(=O)NCC(=O)N[C@@H](COP(=O)(O)O)C(=O)N[C@H](C(=O)N[C@@H](CC(=O)O)C(=O)N[C@@H](CCC(=O)O)C(=O)N[C@@H](CC(N)=O)C(=O)N[C@H](C(=O)N[C@@H](CC(=O)O)C(=O)N[C@@H](CO)C(=O)N[C@@H](CCC(=O)O)C(=O)N[C@@H](CCC(=O)O)C(=O)N[C@@H](Cc1c[nH]cn1)C(=O)N[C@@H](CCC(N)=O)C(N)=O)[C@@H](C)O)[C@@H](C)OP(=O)(O)O
B7: YAGSTDENpTDpSEEHQ (peptide)
chain: YAGSTDENTDSEEHQ
HELM: PEPTIDE1{Y.A.G.S.T.D.E.N.[C[C@@H](OP(=O)(O)O)[C@H](N[*:1])C(=O)[*:2]].D.[O=C([C@H](COP(=O)(O)O)N[*:1])[*:2]].E.E.H.Q.[am]}$$$$V2.0; N-terminus assumed
SMILES: C[C@H](NC(=O)[C@@H](N)Cc1ccc(O)cc1)C(=O)NCC(=O)N[C@@H](CO)C(=O)N[C@H](C(=O)N[C@@H](CC(=O)O)C(=O)N[C@@H](CCC(=O)O)C(=O)N[C@@H](CC(N)=O)C(=O)N[C@H](C(=O)N[C@@H](CC(=O)O)C(=O)N[C@@H](COP(=O)(O)O)C(=O)N[C@@H](CCC(=O)O)C(=O)N[C@@H](CCC(=O)O)C(=O)N[C@@H](Cc1c[nH]cn1)C(=O)N[C@@H](CCC(N)=O)C(N)=O)[C@@H](C)OP(=O)(O)O)[C@@H](C)O
B8: XRCC4 229-237 peptide phosphorylated on Ser232 and Thr233 (peptide)
peptide: YDESTDEES
HELM: PEPTIDE1{Y.D.E.[O=C([C@H](COP(=O)(O)O)N[*:1])[*:2]].[C[C@@H](OP(=O)(O)O)[C@H](N[*:1])C(=O)[*:2]].D.E.E.S.[am]}$$$$V2.0; N-terminus assumed
SMILES: C[C@@H](OP(=O)(O)O)[C@H](NC(=O)[C@H](COP(=O)(O)O)NC(=O)[C@H](CCC(=O)O)NC(=O)[C@H](CC(=O)O)NC(=O)[C@@H](N)Cc1ccc(O)cc1)C(=O)N[C@@H](CC(=O)O)C(=O)N[C@@H](CCC(=O)O)C(=O)N[C@@H](CCC(=O)O)C(=O)N[C@@H](CO)C(N)=O
B9: XRCC1 515-529 peptide phosphorylated on Thr519 (peptide)
peptide: YAGSTDENTDSEEHQ
HELM: PEPTIDE1{Y.A.G.S.[C[C@@H](OP(=O)(O)O)[C@H](N[*:1])C(=O)[*:2]].D.E.N.T.D.S.E.E.H.Q.[am]}$$$$V2.0; N-terminus assumed
SMILES: C[C@H](NC(=O)[C@@H](N)Cc1ccc(O)cc1)C(=O)NCC(=O)N[C@@H](CO)C(=O)N[C@H](C(=O)N[C@@H](CC(=O)O)C(=O)N[C@@H](CCC(=O)O)C(=O)N[C@@H](CC(N)=O)C(=O)N[C@H](C(=O)N[C@@H](CC(=O)O)C(=O)N[C@@H](CO)C(=O)N[C@@H](CCC(=O)O)C(=O)N[C@@H](CCC(=O)O)C(=O)N[C@@H](Cc1c[nH]cn1)C(=O)N[C@@H](CCC(N)=O)C(N)=O)[C@@H](C)O)[C@@H](C)OP(=O)(O)O

Tests used:
Assay in all cases: ITC
[1] = target: aprataxin FHA domain (residues 1-105)
Sequence of aprataxin FHA domain (residues 1-105) (chain, as listed by the source): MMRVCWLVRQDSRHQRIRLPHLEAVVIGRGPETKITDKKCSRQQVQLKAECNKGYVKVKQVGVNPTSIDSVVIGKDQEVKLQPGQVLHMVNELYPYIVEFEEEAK

[2] = target: T1, APLF FHA domain (residues 1-106)
[3] = target: aprataxin FHA domain K38A (residues 1-105)
Sequence of aprataxin FHA domain K38A (residues 1-105) (chain, as listed by the source K38A): as the sequence (chain, as listed by the source) above, with K38A counted along it

Binder | Kd [1] | Kd [2] | Kd [3]
B1 | 0.5 µM | 11 µM | 3.8 µM
B2 | 0.87 µM | 11 µM | 
B3 | 42 µM | 35 µM | 
B4 | 0.14 µM | 0.42 µM | 1.3 µM
B5 | 2.1 µM | 3.6 µM | 6.8 µM
B6 | 1.5 µM | 8.1 µM | 12.8 µM
B7 | 33 µM | 17 µM | 
B8 | 0.25 µM | 0.47 µM | 1.9 µM
B9 | 17 µM | 30 µM | 46.3 µM
